Assay results published in article PMC6294515, “Structural basis of the specific interaction of SMRT corepressor with histone deacetylase 4” (Nucleic Acids Research, 2018).

Key:
HDAC4 = conditions: cited from earlier work
Source text: In contrast to other HDACs, class IIa HDACs have low deacetylase activity ([33]). However, their HDAC domains are directly involved in the transcriptional repression of several genes by forming a supra-complex with the NCoR/SMRT-HDAC3 complex ([16],[17]).

HDAC4c D759Y = conditions: HDAC4c mutant versus wild-type; cited from earlier work
Source text: Next, we analyzed the mutational effects of SM1 mutants by OPTHiS screening (Figure 5A). […] In the peptide-complex structures, G+1, S+2 and T+4 residues on both peptides interact, directly or through water molecules, with residues on the cleft wall of the structural zinc-binding subdomain (Figure 3E). Mutations in this peptide region (G+1R, S+2D and T+4N/T+4A) altered the binding affin ... || Among the seven HDACs whose catalytic domain structures have been reported, HDAC4c is unique in that it has an open conformation when it binds to non-peptide molecules. In agreement with this, mutations at the ^+1GSI^+3 residues of two motifs and R+9 residue of the SM1 lead to a loss of its binding activity to HDAC4c/-5c (Figures 1 and 5). The class IIa HDAC-specific residues (D759, H842, and F871), which are located at the cleft to and entrance to the catalytic zinc-binding site, interact directly or indirectly with these residues of bound peptides (Figure 3D and E). Further, HDAC4c mutants o ...

HDAC5c = assay: Interaction with HDAC5c (yeast two-hybrid, GST pull-down, BiFC); conditions: for interaction with HDAC5c, domain mapping: yeast two-hybrid only, strain EGY48, LexA-fused HDAC5c and SRD3c deletion constructs, liquid β-galactosidase assay
HDAC4c = assay: Interaction with HDAC4c (yeast two-hybrid, GST pull-down, BiFC); conditions: for interaction with HDAC4c, domain mapping: yeast two-hybrid only, strain EGY48, LexA-fused HDAC4c and SRD3c deletion constructs, liquid β-galactosidase assay

Molecule | interaction with HDAC5c, domain mapping (HDAC5c) | interaction with HDAC4c, domain mapping (HDAC4c) | also measured
SMRT: silencing mediator for retinoid and thyroid receptor, general corepressor |  |  | change in deacetylase activity of HDAC4 in the presence of SMRT (HDAC4): lack of noticeable changes in the deacetylase activity of HDAC4
GSITQGIPR [SM1, conserved GSI motif 1361-1369 of SRD3c, …] |  |  | binding affinity to HDAC4c D759Y (HDAC4c D759Y): abrogated interactions
SRD3n: N-terminal region of SRD3 (R1128–E1289) (protein, UniProt Q9Y618 1128-1289, looked up, fragment) GMSVQLHVPYSEHAKAPVGPVTMGLPLPMDPKKLAPFSGVKQEQLSPRGQAGPPESLGVPTAQEASVLRGTALGSVPGGSITKGIPSTRVPSDSAITYRGSITHGTPADVLYKGTITRIIGEDSPSRLDRGREDSLPKGHVIYEGKKGHVLSYEGGMSVTQC |  |  | binding to HDAC5c (HDAC5c; yeast two-hybrid (β-galactosidase), in vitro GST pull-down, BiFC in HEK293 cells, result in words): marginal interaction; binding to HDAC4c (HDAC4c; yeast two-hybrid (β-galactosidase), GST pull-down, BiFC in HEK293 cells, result in words): marginal interaction
I-A: SRD3c deletion construct K1316–G1390 (protein, UniProt Q9Y618 1316-1390, looked up, fragment) GRVGRAISSASIEGLMGRAIPPERHSPHHLKEQHHIRGSITQGIPRSYVEAQEDYLRREAKLLKREGTPPPPPPS | independently interacted with HDAC4c/-5c | independently interacted with HDAC4c/-5c | 
II: SRD3c deletion construct P1396–S1515 (protein, UniProt Q9Y618 1396-1515, looked up, fragment) AYKTQALGPLKLKPAHEGLVATVKEAGRSIHEIPREELRHTPELPLAPRPLKEGSITQGTPLKYDTGASTTGSKKHDVRSLIGSPGRTFPPVHPLDVMADARALERACYEESLKSRPGTA | independently interacted with HDAC4c/-5c, although the binding strength of region II was relatively weaker than that of region I-A | independently interacted with HDAC4c/-5c, although the binding strength of region II was relatively weaker than that of region I-A | 
